The target in the experiment is T1, Exo1-Myc (S. cerevisiae, UniProt P39875 1-702).
T1 construct: Saccharomyces cerevisiae Exonuclease 1 (Exo1); C-terminal Myc tag added to the endogenous EXO1 gene; also called yeast Exo1; source: S. cerevisiae (W303-1A background), endogenous EXO1 gene tagged; in whole cell extract; immunoprecipitated from control or HU-treated cells for Far Western; not shown: Myc, C-terminal, kept
T1 sequence (looked up): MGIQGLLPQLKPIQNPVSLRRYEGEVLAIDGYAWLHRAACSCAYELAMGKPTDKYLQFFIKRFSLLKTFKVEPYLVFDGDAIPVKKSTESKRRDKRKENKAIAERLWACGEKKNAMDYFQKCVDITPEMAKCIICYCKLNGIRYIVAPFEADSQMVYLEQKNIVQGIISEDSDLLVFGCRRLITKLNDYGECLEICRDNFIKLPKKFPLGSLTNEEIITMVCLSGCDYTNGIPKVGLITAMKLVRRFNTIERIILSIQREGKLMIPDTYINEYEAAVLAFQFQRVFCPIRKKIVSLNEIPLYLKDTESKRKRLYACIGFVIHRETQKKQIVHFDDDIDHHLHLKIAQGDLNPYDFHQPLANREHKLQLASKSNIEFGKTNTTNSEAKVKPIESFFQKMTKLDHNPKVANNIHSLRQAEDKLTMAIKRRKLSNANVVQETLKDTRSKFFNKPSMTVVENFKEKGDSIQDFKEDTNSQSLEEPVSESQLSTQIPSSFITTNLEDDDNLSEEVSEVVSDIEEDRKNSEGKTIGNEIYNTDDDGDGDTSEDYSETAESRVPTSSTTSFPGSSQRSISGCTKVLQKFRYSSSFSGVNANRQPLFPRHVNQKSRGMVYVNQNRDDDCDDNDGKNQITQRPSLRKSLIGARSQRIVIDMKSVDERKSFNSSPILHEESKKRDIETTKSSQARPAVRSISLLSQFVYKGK
Briefly: far-Western, overlay or dot blot; Exo1-Myc immunoprecipitated from untreated or HU-treated yeast cells, resolved by SDS-PAGE, transferred to PVDF and denatured/renatured; probed with purified GST-Bmh1 (2 µg). Conditions: both partners purified.

B1: GST-Bmh1 (natural protein, S. cerevisiae, UniProt P29311 1-267, looked up)
chain: MSTSREDSVYLAKLAEQAERYEEMVENMKTVASSGQELSVEERNLLSVAYKNVIGARRASWRIVSSIEQKEESKEKSEHQVELICSYRSKIETELTKISDDILSVLDSHLIPSATTGESKVFYYKMKGDYHRYLAEFSSGDAREKATNASLEAYKTASEIATTELPPTHPIRLGLALNFSVFYYEIQNSPDKACHLAKQAFDDAIAELDTLSEESYKDSTLIMQLLRDNLTLWTSDMSESGQAEDQQQQQQHQQQQPPAAAEGEAPK
notes: Saccharomyces cerevisiae 14-3-3 protein Bmh1; also called purified recombinant GST-Bmh1
As for B1, the binding result was “binds”.
